From patent US20050287664A1 (published 2005)

Biological target: T1, full length rat SD (Shen-Dan) protein expressed from pSDf in HEK293T cells (rat, UniProt Q2VWP9 24-1193)
T1 construct: Full-length rat SD amplified from E10.5 rat cDNA and ligated into pEF1/Myc-His (pSDf); also called SD-expressing cells
T1 sequence: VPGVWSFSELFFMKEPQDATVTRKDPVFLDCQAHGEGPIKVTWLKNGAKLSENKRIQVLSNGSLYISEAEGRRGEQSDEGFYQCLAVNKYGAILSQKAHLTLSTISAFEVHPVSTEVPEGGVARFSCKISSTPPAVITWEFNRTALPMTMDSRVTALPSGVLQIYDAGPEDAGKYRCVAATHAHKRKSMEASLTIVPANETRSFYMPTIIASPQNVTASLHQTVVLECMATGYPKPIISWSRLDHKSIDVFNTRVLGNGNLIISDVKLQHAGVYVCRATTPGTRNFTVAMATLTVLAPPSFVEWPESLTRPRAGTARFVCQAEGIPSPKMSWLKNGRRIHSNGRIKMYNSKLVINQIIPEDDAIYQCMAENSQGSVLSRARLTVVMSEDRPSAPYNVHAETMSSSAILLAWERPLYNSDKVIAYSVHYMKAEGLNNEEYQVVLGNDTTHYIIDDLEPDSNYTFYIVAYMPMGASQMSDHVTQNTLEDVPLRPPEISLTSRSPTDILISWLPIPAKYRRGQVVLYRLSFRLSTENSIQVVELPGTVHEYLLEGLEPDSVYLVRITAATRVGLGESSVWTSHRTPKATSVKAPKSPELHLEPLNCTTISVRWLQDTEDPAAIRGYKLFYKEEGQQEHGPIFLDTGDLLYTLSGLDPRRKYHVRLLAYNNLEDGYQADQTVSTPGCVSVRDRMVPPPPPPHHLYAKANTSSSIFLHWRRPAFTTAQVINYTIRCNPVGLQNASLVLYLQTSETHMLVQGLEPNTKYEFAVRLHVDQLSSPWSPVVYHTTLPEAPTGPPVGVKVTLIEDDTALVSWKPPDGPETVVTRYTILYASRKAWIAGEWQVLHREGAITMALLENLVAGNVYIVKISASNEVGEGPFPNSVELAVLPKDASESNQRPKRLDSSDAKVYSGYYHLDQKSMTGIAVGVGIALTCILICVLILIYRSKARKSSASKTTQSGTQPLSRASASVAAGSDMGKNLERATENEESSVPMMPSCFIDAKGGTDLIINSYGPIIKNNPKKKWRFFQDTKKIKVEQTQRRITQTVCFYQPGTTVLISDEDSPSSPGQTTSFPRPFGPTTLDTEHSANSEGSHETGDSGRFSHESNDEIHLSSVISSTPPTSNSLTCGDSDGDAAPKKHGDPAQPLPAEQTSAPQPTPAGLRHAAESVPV
Test: in situ binding assay, conditioned medium on pSDf-transfected HEK293T cells, immunofluorescence (anti-myc 9E10)
From the text: HEDJ/ERdj3 binds to the SD extracellular domain. a, Schematic representation of eight HEDJ/ERdj3 clones identified by yeast two-hybrid screening and their interaction with the SD extracellular domain, shown as activity in an X-gal assay. b, Various sd deletion mutants were examined for their ability to interact with C-terminal HEDJ/ERdj3. c, HEK293T cells were transiently transfected with pHEDJ or a control vector. Three days after transfection, conditioned medium (CM) and total cell lysate (TCL) were subjected to Western blotting to detect HEDJ/ERdj3 using anti-myc antibody. d, Quantification of HEDJ/ERdj3 binding to SD-expressing cells. HEK293T cells were transiently transfected with pSDf or control vector. SD expression was detected by W4 antiserum. Binding of HEDJ/ERdj3 on the cells was detected by anti-myc mAb. Cell nuclei were visualized by DAPI. […] Data were normalized relative to fluorescence intensity of the cells transfected with pSDf in the presence of control CM. Results are shown as means±s.e.m., from a total of 50 cells. (*, p<0.001; by student's t-test).
HEK293T cells were transfected with pSDf using FuGENE 6 (Roche). […] The fluorescence signal was quantified using ImageJ software (NIH, Bethesda, Md., USA).

B1: C-terminal His-myc-tagged HEDJ/ERdj3 protein secreted from pHEDJ-transfected HEK293T cells (ligand, mouse, UniProt Q99KV1 23-358, looked up)
chain: GRDFYKILGVPRSASIKDIKKAYRKLALQLHPDRNPDDPQAQEKFQDLGAAYEVLSDSEKRKQYDTYGEEGLKDGHQSSHGDIFSHFFGDFGFMFGGTPRQQDRNIPRGSDIIVDLEVTLEEVYAGNFVEVVRNKPVARQAPGKRKCNCRQEMRTTQLGPGRFQMTQEVVCDECPNVKLVNEERTLEVEIEPGVRDGMEYPFIGEGEPHVDGEPGDLRFRIKVVKHRIFERRGDDLYTNVTVSLVEALVGFEMDITHLDGHKVHISRDKITRPGAKLWKKGEGLPNFDNNNIKGSLIITFDVDFPKEQLTEEAKEGIKQLLKQGPVQKVYNGLQGY
notes: mature; also called secreted HEDJ/ERdj3; not shown: C-terminal His-myc tag from pEF1/Myc-His
B1: binds.
